Laboratory results: publication PMC7498345 (Nucleic Acids Research, 2020)
Substitutions are numbered along the chain they refer to. In names and notes the source's numbering stands.

B1: PHF6 WT: PHF6 WT expressed as GST fusion protein in E. coli Rosetta (DE3) cells (protein)
chain: MSSSVEQKKGPTRQRKCGFCKSNRDKECGQLLISENQKVAAHHKCMLFSSALVSSHSDNESLGGFSIEDVQKEIKRGTKLMCSLCHCPGATIGCDVKTCHRTYHYHCALHDKAQIREKPSQGIYMVYCRKHKKTAHNSEADLEESFNEHELEPSSPKSKKKSRKGRPRKTNFKGLSEDTRSTSSHGTDEMESSSYRDRSPHRSSPSDTRPKCGFCHVGEEENEARGKLHIFNAKKAAAHYKCMLFSSGTVQLTTTSRAEFGDFDIKTVLQEIKRGKRMKCTLCSQPGATIGCEIKACVKTYHYHCGVQDKAKYIENMSRGIYKLYCKNHSGNDERDEEDEERESKSRGKVEIDQQQLTQQQLNGN
modifications: labeled with the dye NT-647 (Cy5), in the MST only; left off: GST, end not stated, kept
B2: E223S: H2BK12Ac unrecognizable MT of extended PHD2 (protein)
chain: B1 chain with E223S
modifications: labeled with the dye NT-647 (Cy5), in the MST only; left off: GST, end not stated, kept
B3: C82A (protein, UniProt Q8IWS0 2-365, looked up, variant C82A)
PHD finger protein 6: SSSVEQKKGPTRQRKCGFCKSNRDKECGQLLISENQKVAAHHKCMLFSSALVSSHSDNESLGGFSIEDVQKEIKRGTKLMASLCHCPGATIGCDVKTCHRTYHYHCALHDKAQIREKPSQGIYMVYCRKHKKTAHNSEADLEESFNEHELEPSSPKSKKKSRKGRPRKTNFKGLSEDTRSTSSHGTDEMESSSYRDRSPHRSSPSDTRPKCGFCHVGEEENEARGKLHIFNAKKAAAHYKCMLFSSGTVQLTTTSRAEFGDFDIKTVLQEIKRGKRMKCTLCSQPGATIGCEIKACVKTYHYHCGVQDKAKYIENMSRGIYKLYCKNHSGNDERDEEDEERESKSRGKVEIDQQQLTQQQLNGN
B4: R129A (protein, UniProt Q8IWS0 2-365, looked up, variant R129A)
PHD finger protein 6: B3 PHD finger protein 6 with A81C, R128A
B5: M125A (protein, UniProt Q8IWS0 2-365, looked up, variant M125A)
PHD finger protein 6: B3 PHD finger protein 6 with A81C, M124A

Tests used:
[1] = biological target: GST-PHF6 WT (UniProt Q8IWS0); experiment: MST
[2] = system: H2BK120 of H2B WT-containing mono-nucleosomes; experiment: In vitro ubiquitination assay, H2B-Flag WT mono-nucleosomes; type: biochemical; settings: GST-PHF6 WT/MTs as E3; E1, E2, ubiquitin, 50 μM ZnCl2; 37°C, 1 h

Molecule | fold higher affinity than for the H2B WT peptide [1] [fold] | E3 ubiquitin ligase activity for H2BK120 [2]
H2B peptide (1:20) with K12Ac modification | 5 | 
B1 |  | able to ubiquitinate H2BK120
B2 |  | neither C82A (functional activity dead MT of extended PHD1 by disrupting Zinc ion capturing) nor E223S (H2BK12Ac unrecognizable MT of extended PHD2) were able to ubiquitinate H2BK120
B3 |  | neither C82A (functional activity dead MT of extended PHD1 by disrupting Zinc ion capturing) nor E223S (H2BK12Ac unrecognizable MT of extended PHD2) were able to ubiquitinate H2BK120
B4 |  | indispensable for E3 ligase activity of PHF6
B5 |  | indispensable for E3 ligase activity of PHF6
